Here are results for 2 substances from PMC3792046 (PLoS ONE, 2013).

One assay addresses SB105-A10-PEG-biotin. Put plainly: SPR; BIAcore X100; biotinylated SB105-A10 immobilised on SA streptavidin sensorchip (560 RU, 0,12 pmol/mm^2); gp41 (0.61-10 nM) or gp120 (12.5-100 nM) injected in HBS-EP (10 mM HEPES pH 7.4, 150 mM NaCl, 3 mM EDTA, 0.005% surfactant P20), 3 min association, 10 min wash; streptavidin-alone surface for blank subtraction; steady-state affinity from RU at equilibrium. (In SPR one partner is held on a chip, and binding of the other changes the refractive index at the surface.)

In another assay the test system is gp120. Conditions: ref [71], [72]; cited from earlier work.

Broadly, the Kd is a measure of binding affinity in units of concentration. Lower therefore signals higher affinity.

The substance “HIV-1 glycosilated recombinant gp41 ectodomain (amino acids 546-682) (from UniProt P04578 546-682) (domain or fragment)” showed a Kd in the assay with SB105-A10-PEG-biotin of 3.9 nM.

On to cellulose sulfate, for which the “recognition of positively charged regions on gp120” value with gp120 is recorded as “recognize positively charged regions on gp120”.
